Among the data in patent US20250051802 are activity values, retold here.

This data set relates to SluCas9. The data set is described as follows: cell_activity. The conditions noted are these: amplicon sequencing, HEK 293T.

As for “CCAUUCCCUCUUUAGCCAGAG / CCATTCCCTCTTTAGCCAGAGCGGGGT / ACCCCGCTCTGGCTAAAGAGGGAATGG [pBLR194 guide spacer ; pBLR194 target with PAM]”, for the setting “PAM NNGG (CGGGGT)”, the activity was 65.7%.
Under “PAM NNGG (GTGGAT)”, “UGCCCUGUGGGGCAAGGUGAA / TGCCCTGTGGGGCAAGGTGAAGTGGAT / ATCCACTTCACCTTGCCCCACAGGGCA [pBLR197 guide spacer ; pBLR197 target with PAM]” came in with an activity of 1.9%.
In turn, “GGCCGGCGGCGGACAGUGGAC / GGCCGGCGGCGGACAGTGGACGCGGCGGC / GCCGCCGCGTCCACTGTCCGCCGCCGGCC [pBLR179 guide spacer ; pBLR179 target with PAM]” gave an activity (PAM NNGG (GCGGCGGC)) of 72.8%.
